Data: PMC1133794

Biological target: MyoD (UniProt P10085 1-318)
Assay: EMSA

Sequence of MyoD (P10085 whole entry): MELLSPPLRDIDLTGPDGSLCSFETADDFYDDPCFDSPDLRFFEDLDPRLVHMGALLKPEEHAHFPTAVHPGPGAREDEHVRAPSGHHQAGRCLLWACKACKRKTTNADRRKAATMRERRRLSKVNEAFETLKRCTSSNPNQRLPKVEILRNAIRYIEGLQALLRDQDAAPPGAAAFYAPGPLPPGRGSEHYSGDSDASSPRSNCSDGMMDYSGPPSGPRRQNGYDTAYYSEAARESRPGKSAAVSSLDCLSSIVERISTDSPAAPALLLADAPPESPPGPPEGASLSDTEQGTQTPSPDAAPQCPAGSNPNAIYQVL

B1: G'2 bimolecular tetraplex integrin 26/integrin 29 (structured_DNA)
DNA 1: CATGGGGGCGGGAAGGGGCGGGGTCT
DNA 2: AAAGGTGGGGCGGCAGGGCGCAAGGCAAT
Q: Does B1 bind?
A: binds
